Reference: patent publication US20230190869A1, “PEPTIDE INHIBITORS OF GUANINE NUCLEOTIDE EXCHANGE FACTOR H-1” (UCL Business Ltd, priority 2020, published 2023)
Numbered stars: 1 amine (or outer) side, 2 acyl side, 3 side chain; on linkers, the order of the positions; unused ones are H or OH. Bridge positions count the residues as written; N and C are the ends. Square brackets hold non-standard residues; d marks the D form. Ends that are not written are not given here. Peptide text beside a SMILES is read from it. ξ: configuration not given here. ξαMeNle(6-ylidene) = CC(CCCC=[*:3])(N[*:1])C(=O)[*:2]

What was measured:
MDCK and HEK293 cells [1] = assay: Cell toxicity: release of LDH in the medium (necrosis); format: cell-based
Procedure: (§1) (A and B) MDCK and HEK293 cells were incubated as described in previous figures with TAT-F1 or TAT-P5. Cell toxicity was then assessed by measuring release of LDH in the medium and caspase 3/7 activity in cell extracts. […] Direct lysis of cells served as a positive control in (A) whereas active caspases were used as controls in (B).
as §1, with “stapled-P5.” for “TAT-F1 or TAT-P5.”, “for LDH release” for “in (A)”, “used” for “used as controls”, “caspase assays.” for “(B).”
(§2) The potency of GEF-H1 inhibitors was analysed in cell-based assays to determine effectiveness of inhibition of GEF-H1 signalling and specificity for GEF-H1, and in cell-based assays modelling epithelial degeneration or inflammatory disease. Potential toxicity of the inhibitors was determined by measuring apoptosis (Caspase3/7 activation) and necrosis (release of […]).

MDCK and HEK293 cells [2] = assay: Cell toxicity: caspase 3/7 activity in cell extracts (apoptosis); format: cell-based
Procedure: as §1
as §1, with “stapled-P5.” for “TAT-F1 or TAT-P5.”, “for LDH release” for “in (A)”, “used” for “used as controls”, “caspase assays.” for “(B).”
as §2

[3] = system: interaction between RhoA and constitutively active GEF-H1 (DH/PH module); assay: GST-RhoA pulldown of constitutively active GEF-H1 from cell extracts; format: binding; details: GST-RhoA pull down, FIG. 5
Procedure: Recombinant fusion proteins of GST and RhoA were used for pulldown of constitutively active GEF-H1 from cell extracts. (A) Candidate peptide inhibitors were added to the pulldown. (B, C) Recombinant fragments from the CTD of GEF-H1 were added. Note, the further analysed P5 and F1 peptide inhibitors both block the interaction between RhoA and active GEF-H1.
2) Active GEF-H1 binds with high affinity to nucleotide-free and GDP-bound RhoA, its physiological substrate. […] Thus, both F1 and P5 block GEF-H1 function by the same mechanism. Based on these functional and biochemical assays (FIGS. 4 and 5), F1 and P5 were selected for further analysis and refinement. Membrane permeable derivatives were synthesized for both inhibitors: TAT-F1 and TAT-P5.
The P5 sequence and modified versions thereof, are derived from the interaction surface of RhoA with the active site of GEF-H1 (i.e., the DH domain). […] The same is true for the F1 sequence, as it blocks binding of RhoA to a DH/PH domain construct (FIG. 5).

GEF-H1 [4] = target: T1, GEF-H1 (Canis lupus familiaris, UniProt Q865S3); assay: GEF-H1 overexpression-induced cell spreading / cell shape morphological assay; format: cell-based
T1 sequence (Q865S3 1-986): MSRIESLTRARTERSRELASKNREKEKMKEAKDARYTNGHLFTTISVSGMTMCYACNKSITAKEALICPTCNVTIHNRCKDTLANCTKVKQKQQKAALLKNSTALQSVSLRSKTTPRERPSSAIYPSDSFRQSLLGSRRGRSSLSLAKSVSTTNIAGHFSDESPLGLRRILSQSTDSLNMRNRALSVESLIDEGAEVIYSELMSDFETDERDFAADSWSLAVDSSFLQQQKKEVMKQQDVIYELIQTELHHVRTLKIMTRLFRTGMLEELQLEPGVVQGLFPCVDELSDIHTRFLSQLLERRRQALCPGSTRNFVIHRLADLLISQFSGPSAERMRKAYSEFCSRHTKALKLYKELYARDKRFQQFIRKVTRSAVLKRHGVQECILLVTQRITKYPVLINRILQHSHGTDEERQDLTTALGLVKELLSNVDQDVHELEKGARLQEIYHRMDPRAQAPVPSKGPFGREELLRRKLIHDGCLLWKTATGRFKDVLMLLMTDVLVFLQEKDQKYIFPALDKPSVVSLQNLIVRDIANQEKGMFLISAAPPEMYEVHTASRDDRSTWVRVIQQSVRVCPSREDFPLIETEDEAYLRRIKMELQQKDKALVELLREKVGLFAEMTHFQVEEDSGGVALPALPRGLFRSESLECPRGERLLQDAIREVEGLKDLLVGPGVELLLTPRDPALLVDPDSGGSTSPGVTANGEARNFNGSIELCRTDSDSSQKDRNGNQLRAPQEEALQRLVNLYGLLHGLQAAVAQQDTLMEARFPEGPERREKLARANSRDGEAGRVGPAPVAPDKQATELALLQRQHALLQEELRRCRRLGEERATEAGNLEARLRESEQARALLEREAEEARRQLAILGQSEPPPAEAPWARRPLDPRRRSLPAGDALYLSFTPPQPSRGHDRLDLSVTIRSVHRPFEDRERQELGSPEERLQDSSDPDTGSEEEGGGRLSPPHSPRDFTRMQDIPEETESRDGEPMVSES

GEF-H1 [5] = assay: SRE / αSMA promoter luciferase reporter gene assays of GEF-H1 signalling; format: cell-based; details: GEF-H1 overexpression
p114RhoGEF = target: T2, p114RhoGEF (Homo sapiens, UniProt Q6ZSZ5); assay: p114RhoGEF-induced cell rounding in MDCK cells (specificity); format: cell-based
T2 sequence (Q6ZSZ5 1-1015 isoform Q6ZSZ5-2): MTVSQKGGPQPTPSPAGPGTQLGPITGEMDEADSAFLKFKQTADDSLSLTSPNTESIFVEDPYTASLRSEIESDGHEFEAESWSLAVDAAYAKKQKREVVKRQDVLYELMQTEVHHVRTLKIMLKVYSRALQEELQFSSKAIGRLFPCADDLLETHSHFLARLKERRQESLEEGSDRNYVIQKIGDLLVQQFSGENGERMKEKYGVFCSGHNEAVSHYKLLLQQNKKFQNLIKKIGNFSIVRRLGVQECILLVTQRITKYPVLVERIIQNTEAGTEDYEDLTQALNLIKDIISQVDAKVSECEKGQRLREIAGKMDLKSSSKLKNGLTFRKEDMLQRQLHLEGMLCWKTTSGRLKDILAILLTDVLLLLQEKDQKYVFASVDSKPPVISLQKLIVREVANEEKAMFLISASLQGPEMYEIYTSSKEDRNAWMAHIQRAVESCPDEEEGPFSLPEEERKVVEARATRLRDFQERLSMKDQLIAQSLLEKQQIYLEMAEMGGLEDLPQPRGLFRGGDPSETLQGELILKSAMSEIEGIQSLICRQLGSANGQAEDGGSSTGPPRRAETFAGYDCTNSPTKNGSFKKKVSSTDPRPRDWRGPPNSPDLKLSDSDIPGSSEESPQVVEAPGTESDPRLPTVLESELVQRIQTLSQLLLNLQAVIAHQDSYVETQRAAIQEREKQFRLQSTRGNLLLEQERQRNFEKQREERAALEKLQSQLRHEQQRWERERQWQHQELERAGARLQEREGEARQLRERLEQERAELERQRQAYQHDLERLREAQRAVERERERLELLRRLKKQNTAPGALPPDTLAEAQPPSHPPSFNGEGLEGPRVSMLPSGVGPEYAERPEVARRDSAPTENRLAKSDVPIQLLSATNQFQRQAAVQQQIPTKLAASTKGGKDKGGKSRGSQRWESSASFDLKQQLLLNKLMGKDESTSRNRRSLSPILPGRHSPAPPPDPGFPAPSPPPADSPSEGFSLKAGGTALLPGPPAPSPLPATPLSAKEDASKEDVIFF

active Dbl = assay: αSMA / SRE reporter assays in cells overexpressing active Dbl (specificity); format: cell-based; details: TAT-F1 4 μM
[6] = system: primary retinal pigment epithelial (RPE) cells; assay: TGF-β stimulation of primary RPE cells (αSMA induction, junctional markers); format: cell-based
Procedure: Inhibition of TGF-β signaling in primary retinal pigment epithelial (RPE) cells. (A, B) Primary RPE cells were incubated with TAT-P5 or TAT-F1 and stimulated with TGF-β for five days. (A) αSMA and, as a loading control, tubulin expression were analysed by immunoblotting. […] (B) Expression of the junctional marker ZO-1 and tubulin were determined. (C) Primary RPE cells were incubated with TGF-β as in (A) but with stapled-P5, and expression of αSMA positive cells was analysed by immunofluorescence.
7) The inventors next tested the inhibitors in cell-based disease models. GEF-H1 drives fibrotic and degenrative responses in the RPE, which can be modelled by treating primary RPE cells with TGF-β.

[7] = system: Human primary endothelial cells; assay: LPS-induced endothelial activation; format: cell-based
From the text: GEF-H1 inhibitors prevent endothelial inflammatory responses induced by LPS. Human primary endothelial cells were stimulated with LPS in the presence or absence of the indicated GEF-H1 inhibitors. […] TAT-P5 and TAT-F1 attenuate cytoskeletal remodelling, ICAM1 induction, and attenuate loss of barrier function.
8) GEF-H1 regulates inflammatory responses in various cell types. […] Similarly, cytoskeletal remodeling and cell junction disruption was also attenuated in TNFα and Thrombin-stimulated endothelial cells.

[8] = stapled-P5, different concentrations analysed

CC(C)C[C@H](NC(=O)[C@@H](N)CCCNC(=N)N)C(=O)NC1(C)CCCC=CCCCC(C)(C(=O)N2CCC[C@H]2C(=O)N[C@@H](CC(=O)O)C(=O)N[C@H](C(=O)O)[C@@H](C)O)NC(=O)[C@H](CO)NC(=O)[C@H](C)NC(=O)[C@@H]2CCCN2C1=O (stereo partly shown) [stapled-P5, RL(X)PAS(X)PDT; X = 2,(4, pentenyl)alanine] (H-RL[ξαMeNle(6-ylidene)]PAS[ξαMeNle(6-ylidene)]PDT-OH; staple 3-7)
cell toxicity by release of LDH in the medium (MDCK and HEK293 cells [1]; [8]): No significant cell toxicity
cell toxicity by caspase 3/7 activity in cell extracts (MDCK and HEK293 cells [2]; [8]): No significant cell toxicity

GQEDYDRLRPASYPDTDVI (P5 amino acid sequence) [Peptide P5]
inhibition of the interaction between RhoA and constitutively active GEF-H1 [3]: inhibited the interaction
inhibition of overexpressed GEF-H1, comparison of P1 to P5 (GEF-H1 [4]; morphological assay (cell spreading) and SRE-driven reporter assay, peptide transfection): most effective inhibitor

GRKKRRQRRRPWQGQEDYDRLRPASYPDTDVI [TAT-P5]
cell toxicity by release of LDH in the medium (MDCK and HEK293 cells [1]; TAT-P5 5-20 μM): No significant cell toxicity
cell toxicity by caspase 3/7 activity in cell extracts (MDCK and HEK293 cells [2]; TAT-P5 5-20 μM): No significant cell toxicity

B1: F1: Fragment 1 of the auto-inhibitory C-terminal domain (CTD) of GEF-H1, SEQ ID NO: 2 (protein)
chain: SREDFPLIETEDEAYLRRIKMELQQKDKALVELLREKVGLFAEMTHFQVEEDSGGVALPALPRGLFRSESLECPRGERLLQDAIREVEGLKDLLVGPGVELLLTPRDPALLVDPDSGGSTSPGVTANGEARN
modifications: F1 amino acid sequence
inhibition of the interaction between RhoA and constitutively active GEF-H1 [3]: inhibited the interaction
auto-inhibitory activity / block of GEF-H1 function by CTD fragments (GEF-H1 [4]; FIGS. 4 and 5 (cell spreading, SRE reporter, pulldown)): blocks GEF-H1 function

B2: TAT-F1: F1 fused to a TAT sequence to render it membrane-permeable, SEQ ID NO: 7 (protein)
chain: MGGYGRKKRRQRRRGGGSGYPYDVPDYAGGSSSREDFPLIETEDEAYLRRIKMELQQKDKALVELLREKVGLFAEMTHFQVEEDSGGVALPALPRGLFRSESLECPRGERLLQDAIREVEGLKDLLVGPGVELLLTPRDPALLVDPDSGGSTSPGVTANGEARN
modifications: TAT-F1 amino acid sequence
transcription of the SRE-containing alpha-smooth muscle actin (αSMA) promoter (GEF-H1 [5]): inhibit transcription
inhibition of p114RhoGEF overexpression-induced cell rounding (p114RhoGEF): not inhibited
transcription from the αSMA promoter in cells overexpressing active Dbl (active Dbl): do not inhibit transcription
cell toxicity by release of LDH in the medium (MDCK and HEK293 cells [1]; TAT-F1 1-4 μM): No significant cell toxicity
cell toxicity by caspase 3/7 activity in cell extracts (MDCK and HEK293 cells [2]; TAT-F1 1-4 μM): No significant cell toxicity
downregulation of junctional markers ([6]; primary RPE cells treated with TGF-β, FIG. 11): inhibit downregulation
TGF-β-induced induction of αSMA, a marker of epithelial fibrosis ([6]; primary RPE cells, FIG. 11): effectively suppress
TGF-β induced αSMA expression normalised by tubulin (immunoblot) ([6]; primary RPE cells, TGF-β for five days): concentration-dependent repression
LPS-induced ICAM1 induction ([7]; immunoblotting): attenuate
LPS-induced cytoskeletal remodelling ([7]; immunofluorescence): attenuate
LPS-induced loss of barrier function ([7]; paracellular permeability): attenuate
